EC50 and MFImax data for one molecule are collected here from EP4714971A1 (Shanghai Hansoh Biomedical Co., Ltd., dated 2024).

Holding throughout (assay): flow cytometry on CHO-K1 cells expressing human SEZ6
Background: A flow cytometer gives signals particle by particle.

Assay [1] has as its target T1, human SEZ6 expressed on stably transfected CHO-K1 cells (human, UniProt Q53EL9 20-994).
T1 construct: also called CHO-SEZ6; hSEZ6
T1 sequence: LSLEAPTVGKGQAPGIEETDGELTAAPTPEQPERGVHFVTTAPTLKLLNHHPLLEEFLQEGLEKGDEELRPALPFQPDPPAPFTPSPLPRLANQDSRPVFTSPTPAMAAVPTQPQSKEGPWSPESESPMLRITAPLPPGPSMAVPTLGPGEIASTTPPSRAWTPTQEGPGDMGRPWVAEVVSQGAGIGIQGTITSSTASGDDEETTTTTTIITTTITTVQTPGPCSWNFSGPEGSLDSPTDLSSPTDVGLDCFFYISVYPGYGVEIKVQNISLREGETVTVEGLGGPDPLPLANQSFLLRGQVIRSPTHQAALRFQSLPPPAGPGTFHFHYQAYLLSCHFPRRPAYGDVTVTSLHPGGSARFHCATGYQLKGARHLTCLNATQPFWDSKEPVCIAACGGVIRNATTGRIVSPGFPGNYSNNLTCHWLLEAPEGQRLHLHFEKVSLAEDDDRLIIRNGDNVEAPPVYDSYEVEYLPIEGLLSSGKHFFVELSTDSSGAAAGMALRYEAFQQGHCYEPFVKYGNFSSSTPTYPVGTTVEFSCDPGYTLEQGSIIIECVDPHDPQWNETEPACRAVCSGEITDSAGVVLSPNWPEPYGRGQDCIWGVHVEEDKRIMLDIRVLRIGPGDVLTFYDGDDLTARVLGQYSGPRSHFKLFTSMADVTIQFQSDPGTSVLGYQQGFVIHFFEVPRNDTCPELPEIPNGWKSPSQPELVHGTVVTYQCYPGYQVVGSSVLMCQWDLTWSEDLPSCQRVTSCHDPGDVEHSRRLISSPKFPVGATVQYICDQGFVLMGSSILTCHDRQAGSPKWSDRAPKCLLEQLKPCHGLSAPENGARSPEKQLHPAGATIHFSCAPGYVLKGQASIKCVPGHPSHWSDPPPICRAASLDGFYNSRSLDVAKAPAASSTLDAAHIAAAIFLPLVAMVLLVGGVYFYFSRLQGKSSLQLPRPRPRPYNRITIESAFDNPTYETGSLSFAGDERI

Assay [2] addresses T1, human SEZ6 expressed on stably …. The source holds these as a separate data set.
The target is the same in assay [3]. The source holds these as a separate data set.

Like-named read-outs stand apart in the source and are kept apart here.

B1: hSC200 (hSC17.200) (antibody, human IgG1, kappa, V domains shown)
VH: EVQLVQSGAEVKKPGESLKISCKGSGYSFTSSWINWVRQMPGKGLEWMGRIYPGEGDTNYNGNFEGQVTISADKSISTAYLQWSSLKASDTAMYYCTRGLVMDYWGQGTLVTVSS
VL: EIVLTQSPATLSLSPGERATLSCRASQSVDYNGISYMHWYQQKPGQAPRLLIYAASNVQSGIPARFSGSGSGTDFTLTISSLEPEDFAVYYCQQSIEDPPTFGGGTKVEIKR
notes: also called control molecule; control antibody
The term EC50 denotes the concentration at which the effect is half-maximal. Take B1: the EC50 was determined as 0.19 nM in assay [1], 0.66 nM in assay [2] and 0.21 nM in assay [3]. For the same molecule, the MFImax in assay [2] worked out at 3300; in assay [3] it was 3940.
